Measured values from publication PMC3672285 (RNA Biology, 2013).

T1: Rrp41-Rrp42 hexamer, His-tagged subunits (S. solfataricus, UniProt Q9UXC2 1-248; Q9UXC0 1-275)
T1 sequence (looked up) 1: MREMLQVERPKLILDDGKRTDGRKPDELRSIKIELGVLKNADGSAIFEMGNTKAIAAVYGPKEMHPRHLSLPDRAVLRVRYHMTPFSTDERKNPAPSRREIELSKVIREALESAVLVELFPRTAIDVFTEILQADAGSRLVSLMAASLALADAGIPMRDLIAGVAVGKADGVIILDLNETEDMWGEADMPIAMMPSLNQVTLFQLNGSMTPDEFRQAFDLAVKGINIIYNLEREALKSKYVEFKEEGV
T1 sequence (looked up) 2: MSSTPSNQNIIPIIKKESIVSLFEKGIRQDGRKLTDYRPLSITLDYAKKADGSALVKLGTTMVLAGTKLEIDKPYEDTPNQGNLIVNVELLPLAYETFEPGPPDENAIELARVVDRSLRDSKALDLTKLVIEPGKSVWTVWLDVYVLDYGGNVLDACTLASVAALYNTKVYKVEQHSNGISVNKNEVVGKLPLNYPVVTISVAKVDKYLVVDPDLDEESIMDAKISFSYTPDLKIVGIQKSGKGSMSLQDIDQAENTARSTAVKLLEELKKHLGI

T2: Strep-Csl4-exosome (Strep-Csl4, His6-Rrp41, His6-Rrp42) (S. solfataricus, UniProt Q9UXC2 1-248; Q9UXC0 1-275; Q980J9 1-189)
T2 sequence (looked up) 1: T1 sequence (looked up) 1
T2 sequence (looked up) 2: T1 sequence (looked up) 2
T2 sequence (looked up) 3: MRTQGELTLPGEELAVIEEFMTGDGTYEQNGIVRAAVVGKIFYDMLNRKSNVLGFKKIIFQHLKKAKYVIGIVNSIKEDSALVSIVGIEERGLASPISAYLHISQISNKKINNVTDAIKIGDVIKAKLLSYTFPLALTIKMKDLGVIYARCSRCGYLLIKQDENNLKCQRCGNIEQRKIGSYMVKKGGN

T3: His-tagged Rrp42 of S. solfataricus (S. solfataricus, UniProt Q9UXC0 1-275)
T3 sequence (looked up): T1 sequence (looked up) 2

B1: His-tagged Csl4 of S. solfataricus (natural protein, UniProt Q980J9 1-189, looked up)
chain: T2 sequence (looked up) 3
B2: Strep-tagged Csl4 of S. solfataricus (natural protein, UniProt Q980J9 1-189, looked up)
chain: T2 sequence (looked up) 3
B3: His-tagged DnaG of S. solfataricus (natural protein, UniProt P95980 1-406, looked up)
chain: MSFQMKYDIRLRFEVEGIVEKTDVIGAIFGQTENLFGDEFDLRELQDKGRLGRIIVEVKTKGGKSEGEIIIPSNLDRIETALIAAMVESVDKVGPYNSKFELIEIEDIRAEKLKKIIERAKGILSSWSKEKSLDIKEVINEISSAVKVGEITEYGPERLPAGPDVDKDPNLIIVEGRADVINLLRYGYKNVIAVEGATSRIPETLINLSKMKKTVIAFLDGDHGGDLILKELLSNNVKIDFVARAPIGREVEELTGKEIAKALSNMMPLTQYLKKVQEAEQAIAKNVIAKEEKPIQSETTQQVVQITLPQNILEEIKKLPGTLEGVLYDNNWNLIEKVQVRDIIPKLEAYEDNKVAYIIFDGVITQRLLDLASQKNIKMIIGARIGGINKRPQNVDILTFTDIISS
B4: His-tagged Rrp41 of S. solfataricus (natural protein, UniProt Q9UXC2 1-248, looked up)
chain: T1 sequence (looked up) 1
B5: His-tagged Rrp4 of S. solfataricus (natural protein, UniProt Q9UXC4 1-249, looked up)
chain: MNMSQSQKIVLQPRSIVVPGELLAEGEFQIPWSPYILKINSKYYSTVVGLFDVKDTQFEVIPLEGSFYYPKINDIVIGLVEDVEIYGWVVDIKAPYKAYLPASNLLGRSINVGEDLRRYLDVGDYVIARIENFDRSIDPVLSVKGKDLGRVSNGIVIDIMPVKVPRVIGKNKSMYETLTSKSGCSIFVANNGRIWATCPSRFSEEILIEAIRKIENESHIKGLTDRIKQFIEEKLGERNASSGETKTNS

How the values were obtained:
[1] = target: T1, Rrp41-Rrp42 hexamer, His-tagged subunits; test: co-IP
[2] = target: B5; test: pull-down
[3] = target: T2, Strep-Csl4-exosome (Strep-Csl4, …); test: pull-down
[4] = target: T3, His-tagged Rrp42 of S. solfataricus; test: SEC

B1: binds [1].

B2: binds [2].

B3: binds [3].

B4: binds [4].

B5: binds [1].
